Positions count from the first letter of the chain named.
B1: 8B6A (antibody, V domains shown)
VH: QVQLQQPGSELVRPGASVKLSCKASGYTFTSYWMHWVKQRPGQGLEWIGTIYPGSDITNYDEKFKNKATLTVDTSSSTAYMQLSSLTSEDSAVYYCTRDGRFANWGQGTLVTVSA
VL: EIVLTQSPAITAASLGQKVTITCSASSSVSYMHWYQQKSGTSPKPWIYEISKLASGVPARFSGSGSGTSYSLTISSMEAEDAAIYYCQQWNLPLTFGAGTKLELK
notes: Mouse variable domains; light chain is kappa (VK); also called CHG1-M-H46 8B6-A
B2: 8B6B (antibody, V domains shown)
VH: B1 VH
VL: EIQMTQSPSSLSASLGERVSLTCRASQDIGSSLNWLQQEPDGTIKRLIYATSSLDSGVPKRFSGSRSGSDYSLTISSLESEDFVDYYCLQYASSPYTFGGGTKLEIK
notes: Same heavy chain variable domain as 8B6A with a different light chain; also called CHG1-M-H46 8B6-B
B3: 17E1 (antibody, V domains shown)
VH: QVQLQQPGSVLVRPGASVKLSCKASGYTFTSSWMHWAKQRPGQGLEWIGHIHPNSGISNYNEKFKGKATLTVDTSSSTAYVDLSSLTSEDSAVYYCSRGGRFDDWGAGTTVTVSS
VL: B2 VL with E1D, S53R, Y96W
notes: also called CHG1-M-H46 17E1
B4: 9H11A (antibody, V domains shown)
VH: QVQLQQPGAELVKPGASVKLSCKASGYTFTSYWMHWVKLRPGQGFEWIGEIIPSNGVTNYNEKFKRKATLTVDKSSSTAYMQLSSLTSEDSAVYYCTIRLRYALDYWGQGTSVTVSA
VL: DIQMTQTTSSLSASLGDRVTISCRASQDISNFLNWYQQKPDGTVKLLIYYTSRLHSGVPSRFSGSGSGTDYSLTISNLEQEDIATYFCQQGNTLPPTFGGGTKLEIK
notes: also called CHG1-M-H46 9H11-A
B5: 9H11B (antibody, V domains shown)
VH: B4 VH
VL: DIVMTQSQKFMSTSVGDRVSVTCKASQNVGTNVAWYQQKPGQSPKALIYSTSFRYSGVPDRFTGSGSGTDFTLTISNVQSEDLAEYFCQQYNSYPFTFGSGTKLEIK
notes: Same heavy chain variable domain as 9H11A with a different light chain; also called CHG1-M-H46 9H11-B
B6: 17E1 antibody-drug conjugate with PBD dimer (DAR=2) (antibody, V domains shown)
VH: B3 VH
VL: B2 VL with E1D, S53R, Y96W
modifications: PBD dimer through amino-PEG-azide / DBCO-val-ala linker on Q295 (Kabat EU numbering) of each heavy chain; deglycosylated with PNGaseF
B7: 9H11A antibody-drug conjugate with PBD dimer (DAR=2) (antibody, V domains shown)
VH: B4 VH
VL: B4 VL
modifications: PBD dimer through amino-PEG-azide / DBCO-val-ala linker on Q295 (Kabat EU numbering) of each heavy chain; deglycosylated with PNGaseF
B8: 9H11B antibody-drug conjugate with PBD dimer (DAR=2) (antibody, V domains shown)
VH: B4 VH
VL: B5 VL
modifications: PBD dimer through amino-PEG-azide / DBCO-val-ala linker on Q295 (Kabat EU numbering) of each heavy chain; deglycosylated with PNGaseF

Each binder was assayed against T1, Macaca fascicularis NKp46 expressed on CHO cells (Macaca fascicularis, UniProt Q95JB9 22-306) (assay: flow cytometry on CHO cells transfected with cyno NKp46, dose range, anti-human IgG1-PE detection).
T1 construct: Cloned from Macaca fascicularis cDNA and transfected into the CHO cell line; also called cyno NKp46; CHO-cynoNKp46
Protocol: The antibodies (including 8B6A, 8B6B, 9H11A, 9H11B and 17E1) were assessed for binding to Macaca fascicularis NKp46 (cyno NKp46) protein. The sequence of cyno NKp46 (shown below) was cloned from Macaca fascicularis cDNA and transfected into the CHO cell line. The binding of CHG1-M-H46 to CHO-cynoNKp46 was analyzed by flow cytometry.
Flow cytometry: CHO cells were harvested and stained in PBS 1×/BSA 0.2%/EDTA 2 mM buffer during 30 minutes at 4° C. using a dose-range of the anti-NKp46 mAbs. After two washes in staining buffer, cells incubated with anti-NKp46 antibodies were stained for 30 min at 4° C. with mouse anti-human IgG1-PE monoclonal antibodies from Miltenyi (dil 1/10). After two washes, stainings were acquired on a HTFC Intellicyt and analyzed using ForeCyt software.

T1 sequence (Q95JB9 22-306 limits assumed): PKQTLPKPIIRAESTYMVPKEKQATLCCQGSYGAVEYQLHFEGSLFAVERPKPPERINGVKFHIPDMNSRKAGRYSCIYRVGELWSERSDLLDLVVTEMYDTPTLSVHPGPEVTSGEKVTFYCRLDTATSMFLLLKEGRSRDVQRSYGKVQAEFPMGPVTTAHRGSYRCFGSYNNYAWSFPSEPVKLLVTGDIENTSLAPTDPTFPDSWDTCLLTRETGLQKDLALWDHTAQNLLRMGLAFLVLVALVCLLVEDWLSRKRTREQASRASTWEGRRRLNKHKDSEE

Row | Binder | EC50 [ng/mL]
1 | B1 | 29
2 | B2 | 28
3 | B3 | 59
4 | B4 | 26
5 | B5 | 25

The binders below were run against T2, human NKp46 expressed on cells (human, UniProt O76036 22-304) (assay: cell-based or functional assay).
T2 sequence (O76036 22-304 Q82K limits assumed): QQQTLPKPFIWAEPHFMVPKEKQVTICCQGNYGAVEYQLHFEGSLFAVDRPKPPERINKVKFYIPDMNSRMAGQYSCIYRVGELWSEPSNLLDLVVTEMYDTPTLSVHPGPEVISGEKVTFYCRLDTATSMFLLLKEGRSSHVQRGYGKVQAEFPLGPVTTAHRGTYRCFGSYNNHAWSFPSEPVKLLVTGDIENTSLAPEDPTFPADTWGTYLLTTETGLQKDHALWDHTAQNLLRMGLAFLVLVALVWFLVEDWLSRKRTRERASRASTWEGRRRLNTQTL

Row | Binder | IC50 for cytotoxicity towards SNK6 cells (Cell Titer Glo, 72 h) [ng/mL]
6 | B6 | 0.01
7 | B7 | 0.02
8 | B8 | 0.01

These binders were tested against T3, Human 6xHis tagged NKp46 recombinant protein (human, UniProt O76036 22-255, limits assumed) (assay: SPR Biacore T100, antibody captured on Protein-G chip, soluble NKp46-His 12.5-200 nM, single cycle kinetics, 1:1 model, monovalent).
T3 construct: also called NKp46-His; soluble NKp46-His recombinant proteins; not shown: 6xHis tag
Protocol: SPR measurements were performed on a Biacore T100 apparatus (Biacore GE Healthcare) at 25° C. In all Biacore experiments HBS-EP+ (Biacore GE Healthcare) and NaOH 10 mM NaCl 500 mM served as running buffer and regeneration buffer respectively. Sensorgrams were analyzed with Biacore T100 Evaluation software. Protein-G was purchase from GE Healthcare and Anti-His antibody from QIAGEN. Human 6×His tagged NKp46 recombinant proteins (NKp46-His) were cloned, produced and purified at Innate Pharma.
Affinity study has been performed using the Protein-G chip. Monovalent affinity study was done following the Single Cycle Kinetic (SCK) protocol. Five serial dilutions of soluble NKp46-His recombinant proteins ranging from 12.5 to 200 nM were injected over the captured Anti-NKp46 anti bodies (without regeneration) and allowed to dissociate for 10 min before regeneration. For each antibody, the entire sensorgram was fitted using the 1:1 SCK binding model.

T3 sequence (O76036 22-255 Q82K limits assumed): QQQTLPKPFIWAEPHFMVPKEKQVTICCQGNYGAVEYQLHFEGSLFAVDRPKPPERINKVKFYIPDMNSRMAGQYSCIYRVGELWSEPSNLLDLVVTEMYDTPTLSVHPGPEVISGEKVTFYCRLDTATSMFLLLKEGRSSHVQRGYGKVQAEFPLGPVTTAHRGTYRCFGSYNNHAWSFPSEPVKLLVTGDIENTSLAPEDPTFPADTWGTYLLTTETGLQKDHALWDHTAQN

Row | Binder | Kd [nM] | koff [s⁻¹] | kon [M⁻¹ s⁻¹]
9 | B1 | 4.08 | 0.00109 | 267000
10 | B2 | 4.07 | 0.0011 | 271000
11 | B4 | 0.728 | 0.000199 | 273000
12 | B5 | 0.892 | 0.000253 | 283000

What follows are binders tested against T2, human NKp46 expressed on cells (assay: flow cytometry on Raji-hNKp46 cells, dose range, anti-human IgG1-PE detection).
Protocol: Flow cytometry: Cells were harvested and stained in PBS 1×/BSA 0.2%/EDTA 2 mM buffer during 30 minutes at 4° C. using a dose-range of the anti-NKp46 mAbs. After two washes in staining buffer, cells incubated with anti-NKp46 antibodies were stained for 30 min at 4° C. with mouse anti-human IgG1-PE monoclonal antibodies from Miltenyi (dil. 1/10). After two washes, the stainings were acquired on the HTFC Intellicyt device and analyzed using the ForeCyt software.

Row | Binder | EC50 [ng/mL]
13 | B1 | 148
14 | B2 | 76
15 | B3 | 55
16 | B4 | 51
17 | B5 | 124
